This passage reports Km results from paper PMC2701924, “Molecular cloning and expression of a novel trehalose synthase gene from Enterobacter hormaechei” (Microbial Cell Factories, 2009).

Substrate in this data set: OC[C@H]1O[C@H](O[C@H]2O[C@H](CO)[C@@H](O)[C@H](O)[C@H]2O)[C@H](O)[C@@H](O)[C@@H]1O
The data set is described as follows: initial rates, ion chromatography of products, Lineweaver-Burk. In kind it is biochemical, Enterobacter hormaechei. The following applies: substrate 1-200 mM, pH and temperature not stated for kinetics (standard assay 50 mM phosphate pH 6, 37°C), reverse reaction.

B1: recombinant TreS (Enterobacter hormaechei trehalose synthase) (Enterobacter hormaechei) (protein)
chain: MAGWHTRAIIYQIDTALFYDLNGDGCGDIAGITAKLRYIRRMGATVIWITPFYLTPFLDEGYDVSDHLQVDPRFGKLNDIIAFIEQARELGMQVIIELLIQHTSDAHPWFQQARRNPQSPYRDYYLWSDTDDDDTPPMFPGVEKSIWTWDDEAGQYYRHMFYHHEPDLNLASPAVLKEVENIIIFWLKLGVSGFRLDAASHLTKQAGRGDEKRGLWILEHLRCLIGQRNPDAILLGEVDVEVEAYKDYFGQNDRLNLVLNFWLNKYFYVSLAEKSARPLRNAVKKMIVPPDSCCFANWLRNHDELDLEGIGKKAKQTVIDTFAPDEEMSVYQRGIRRRLAPMLNGDRKRLAFCHAVLFSLPGVPVMRYGDEIGMGDDLDLEERYAVRTPMQWAGSQGGGFSDADPETFVAPMIDHGPYRYQKINVADSLLHRNSLLHCIIDIANTRSEFPEIGVAPFRLINIDSDAVLGIYYETDTRSILTFVNFSDKPVNFTARGIRHATWTACLADKRYDDALVCGKTVALNLSGYGYRWFWTDRTALR
notes: pET30a(+) Nco I/Not I; 46 additional N-terminal residues incl; 6-His tag kept; about 65 kDa on SDS-PAGE; expressed in E. coli BL21(DE3) plysS, Ni-NTA
A word on the Km: it is the concentration of substrate that gives half-maximal velocity. For the protein B1, the Km was determined as 75 mM.
